{"source": "patent EP1832653A1", "about": "(INSTITUTE OF VIROLOGY, dated 2007)", "binders": {"B1": {"name": "oligopeptide … (aa 75-98) [SEQ ID NO: 106] (peptide)", "peptide": "EDPPGEEDLPGEEDLPGEEDLPEV", "notes": "Synthetic; cysteine added onto the C-end; C-terminal acid"}, "B2": {"name": "phage-displayed heptapeptide of SEQ ID NO: 137 (without the added alanines), Ph.D.-7 library (peptide)", "peptide": "KKMKRRK", "notes": "Residues 2-8 follow from 'after adding alanine on both sides'"}}, "key": {"[1]": {"target": "T1, monoclonal antibody M75 (MAb M75), secreted from the hybridoma VU-M75, ATCC HB 11128", "T1 construct": "also called MAb 75", "assay": "competition ELISA: peptide in solution against immobilized GST-MN for M75"}, "[2]": {"target": "B1", "assay": "phage display panning, 5 cycles, on immobilized peptide SEQ ID NO: 106"}}, "data": [{"binder": "B1", "values": [{"measurement": "IC50", "setting": "[1]", "result": 1, "unit": "ng/mL"}]}, {"binder": "B2", "values": [{"measurement": "binding result", "setting": "[2]", "result": "binds"}]}, {"binder": "ITFNAQY", "note": "[phage-displayed heptapeptide of SEQ ID NO: 138 (without the added alanines), Ph.D.-7 library]", "values": [{"measurement": "binding result", "setting": "[2]", "result": "binds"}]}, {"binder": "SASAPVS", "note": "[phage-displayed heptapeptide of SEQ ID NO: 139 (without the added alanines), Ph.D.-7 library]", "values": [{"measurement": "binding result", "setting": "[2]", "result": "binds"}]}]}
